In patent US20250171562A1 one finds EC50 and Max effect/effect 1 µM data, which are given here for eight molecules.

Broadly, the EC50 is the concentration needed to bring the measured effect to its halfway point.

B1: NIgG4E2A1(G4S)3 (Fc fusion)
chain 1: DVQLQESGGGLVQAGGSLRLSCAASGRTISRYAVGWFRRPPAKEREFIGINWSGGSTTYADSAEGRFIISRDNAKNTVYLQMNSLKPEDTAVYYCAVPSVLVQGGISNPSQYDYWGQGTQVTVSGGGGSGGGGSGGGGSGPPCPPCPAPEFLGGPSVFLFPPKPKDTLMISRTPEVTCVVVDVSQEDPEVQFNWYVDGVEVHNAKTKPREEQFNSTYRVVSVLTVLHQDWLNGKEYKCKVSNKGLPSSIEKTISKAKGQPREPQVYTLPPCQEEMTKNQVSLWCLVKGFYPSDIAVEWESNGQPENNYKTTPPVLDSDGSFFLYSRLTVDKSRWQEGNVFSCSVMHEALHNHYTQKSLSLSLGK
chain 2: EVQLLESGGGLVQPGGSLRLSCAASGFTFGNYDMAWVRQAPGKRPEWVSSIDTGGDITHYADSVKGRFTISRDNAKNTLYLQMNSLRPEDTAVYWCATDEEYALGPNEFDYYGQGTLVTVSSGGGGSGGGGSGGGGSGPPCPPCPAPEFLGGPSVFLFPPKPKDTLMISRTPEVTCVVVDVSQEDPEVQFNWYVDGVEVHNAKTKPREEQFNSTYRVVSVLTVLHQDWLNGKEYKCKVSNKGLPSSIEKTISKAKGQPREPQVCTLPPSQEEMTKNQVSLSCAVKGFYPSDIAVEWESNGQPENNYKTTPPVLDSDGSFFLVSRLTVDKSRWQEGNVFSCSVMHEALHNHYTQKSLSLSLGK
B2: NIgG4E2A1(G4S)2 (Fc fusion)
chain 1: DVQLQESGGGLVQAGGSLRLSCAASGRTISRYAVGWFRRPPAKEREFIGINWSGGSTTYADSAEGRFIISRDNAKNTVYLQMNSLKPEDTAVYYCAVPSVLVQGGISNPSQYDYWGQGTQVTVSGGGGSGGGGSGPPCPPCPAPEFLGGPSVFLFPPKPKDTLMISRTPEVTCVVVDVSQEDPEVQFNWYVDGVEVHNAKTKPREEQFNSTYRVVSVLTVLHQDWLNGKEYKCKVSNKGLPSSIEKTISKAKGQPREPQVYTLPPCQEEMTKNQVSLWCLVKGFYPSDIAVEWESNGQPENNYKTTPPVLDSDGSFFLYSRLTVDKSRWQEGNVFSCSVMHEALHNHYTQKSLSLSLGK
chain 2: EVQLLESGGGLVQPGGSLRLSCAASGFTFGNYDMAWVRQAPGKRPEWVSSIDTGGDITHYADSVKGRFTISRDNAKNTLYLQMNSLRPEDTAVYWCATDEEYALGPNEFDYYGQGTLVTVSSGGGGSGGGGSGPPCPPCPAPEFLGGPSVFLFPPKPKDTLMISRTPEVTCVVVDVSQEDPEVQFNWYVDGVEVHNAKTKPREEQFNSTYRVVSVLTVLHQDWLNGKEYKCKVSNKGLPSSIEKTISKAKGQPREPQVCTLPPSQEEMTKNQVSLSCAVKGFYPSDIAVEWESNGQPENNYKTTPPVLDSDGSFFLVSRLTVDKSRWQEGNVFSCSVMHEALHNHYTQKSLSLSLGK
B3: CIgG4E2A1(G4S)2 (Fc fusion)
chain 1: GPPCPPCPAPEFLGGPSVFLFPPKPKDTLMISRTPEVTCVVVDVSQEDPEVQFNWYVDGVEVHNAKTKPREEQFNSTYRVVSVLTVLHQDWLNGKEYKCKVSNKGLPSSIEKTISKAKGQPREPQVYTLPPCQEEMTKNQVSLWCLVKGFYPSDIAVEWESNGQPENNYKTTPPVLDSDGSFFLYSRLTVDKSRWQEGNVFSCSVMHEALHNHYTQKSLSLSLGKGGGGSGGGGSDVQLQESGGGLVQAGGSLRLSCAASGRTISRYAVGWFRRPPAKEREFIGINWSGGSTTYADSAEGRFIISRDNAKNTVYLQMNSLKPEDTAVYYCAVPSVLVQGGISNPSQYDYWGQGTQVTVS
chain 2: GPPCPPCPAPEFLGGPSVFLFPPKPKDTLMISRTPEVTCVVVDVSQEDPEVQFNWYVDGVEVHNAKTKPREEQFNSTYRVVSVLTVLHQDWLNGKEYKCKVSNKGLPSSIEKTISKAKGQPREPQVCTLPPSQEEMTKNQVSLSCAVKGFYPSDIAVEWESNGQPENNYKTTPPVLDSDGSFFLVSRLTVDKSRWQEGNVFSCSVMHEALHNHYTQKSLSLSLGKGGGGSGGGGSEVQLLESGGGLVQPGGSLRLSCAASGFTFGNYDMAWVRQAPGKRPEWVSSIDTGGDITHYADSVKGRFTISRDNAKNTLYLQMNSLRPEDTAVYWCATDEEYALGPNEFDYYGQGTLVTVSS
B4: CIgG4E2A1(RS) (Fc fusion)
chain 1: GPPCPPCPAPEFLGGPSVFLFPPKPKDTLMISRTPEVTCVVVDVSQEDPEVQFNWYVDGVEVHNAKTKPREEQFNSTYRVVSVLTVLHQDWLNGKEYKCKVSNKGLPSSIEKTISKAKGQPREPQVYTLPPCQEEMTKNQVSLWCLVKGFYPSDIAVEWESNGQPENNYKTTPPVLDSDGSFFLYSRLTVDKSRWQEGNVFSCSVMHEALHNHYTQKSLSLSLGKRSDVQLQESGGGLVQAGGSLRLSCAASGRTISRYAVGWFRRPPAKEREFIGINWSGGSTTYADSAEGRFIISRDNAKNTVYLQMNSLKPEDTAVYYCAVPSVLVQGGISNPSQYDYWGQGTQVTVS
chain 2: GPPCPPCPAPEFLGGPSVFLFPPKPKDTLMISRTPEVTCVVVDVSQEDPEVQFNWYVDGVEVHNAKTKPREEQFNSTYRVVSVLTVLHQDWLNGKEYKCKVSNKGLPSSIEKTISKAKGQPREPQVCTLPPSQEEMTKNQVSLSCAVKGFYPSDIAVEWESNGQPENNYKTTPPVLDSDGSFFLVSRLTVDKSRWQEGNVFSCSVMHEALHNHYTQKSLSLSLGKRSEVQLLESGGGLVQPGGSLRLSCAASGFTFGNYDMAWVRQAPGKRPEWVSSIDTGGDITHYADSVKGRFTISRDNAKNTLYLQMNSLRPEDTAVYWCATDEEYALGPNEFDYYGQGTLVTVSS
B5: NIgG4E3A1(RS) (Fc fusion)
chain 1: DVQLQESGGGLVQAGGSLRLACAASGRTLSSYVVSWFRQAPGKERKFVAAITWSGLSTTYLDSVQGRFTISRDNTKDTVYLQMNSLKPQDTAIYYCAAGPNIPSILRTRESEYAYWGQGTQVTVSRSGPPCPPCPAPEFLGGPSVFLFPPKPKDTLMISRTPEVTCVVVDVSQEDPEVQFNWYVDGVEVHNAKTKPREEQFNSTYRVVSVLTVLHQDWLNGKEYKCKVSNKGLPSSIEKTISKAKGQPREPQVYTLPPCQEEMTKNQVSLWCLVKGFYPSDIAVEWESNGQPENNYKTTPPVLDSDGSFFLYSRLTVDKSRWQEGNVFSCSVMHEALHNHYTQKSLSLSLGK
chain 2: EVQLLESGGGLVQPGGSLRLSCAASGFTFGNYDMAWVRQAPGKRPEWVSSIDTGGDITHYADSVKGRFTISRDNAKNTLYLQMNSLRPEDTAVYWCATDEEYALGPNEFDYYGQGTLVTVSSRSGPPCPPCPAPEFLGGPSVFLFPPKPKDTLMISRTPEVTCVVVDVSQEDPEVQFNWYVDGVEVHNAKTKPREEQFNSTYRVVSVLTVLHQDWLNGKEYKCKVSNKGLPSSIEKTISKAKGQPREPQVCTLPPSQEEMTKNQVSLSCAVKGFYPSDIAVEWESNGQPENNYKTTPPVLDSDGSFFLVSRLTVDKSRWQEGNVFSCSVMHEALHNHYTQKSLSLSLGK
B6: NIgG4E3A1(G4S)1 (Fc fusion)
chain 1: DVQLQESGGGLVQAGGSLRLACAASGRTLSSYVVSWFRQAPGKERKFVAAITWSGLSTTYLDSVQGRFTISRDNTKDTVYLQMNSLKPQDTAIYYCAAGPNIPSILRTRESEYAYWGQGTQVTVSGGGGSGPPCPPCPAPEFLGGPSVFLFPPKPKDTLMISRTPEVTCVVVDVSQEDPEVQFNWYVDGVEVHNAKTKPREEQFNSTYRVVSVLTVLHQDWLNGKEYKCKVSNKGLPSSIEKTISKAKGQPREPQVYTLPPCQEEMTKNQVSLWCLVKGFYPSDIAVEWESNGQPENNYKTTPPVLDSDGSFFLYSRLTVDKSRWQEGNVFSCSVMHEALHNHYTQKSLSLSLGK
chain 2: EVQLLESGGGLVQPGGSLRLSCAASGFTFGNYDMAWVRQAPGKRPEWVSSIDTGGDITHYADSVKGRFTISRDNAKNTLYLQMNSLRPEDTAVYWCATDEEYALGPNEFDYYGQGTLVTVSSGGGGSGPPCPPCPAPEFLGGPSVFLFPPKPKDTLMISRTPEVTCVVVDVSQEDPEVQFNWYVDGVEVHNAKTKPREEQFNSTYRVVSVLTVLHQDWLNGKEYKCKVSNKGLPSSIEKTISKAKGQPREPQVCTLPPSQEEMTKNQVSLSCAVKGFYPSDIAVEWESNGQPENNYKTTPPVLDSDGSFFLVSRLTVDKSRWQEGNVFSCSVMHEALHNHYTQKSLSLSLGK
B7: CIgG4E2A1(G4S)3 (Fc fusion)
chain 1: GPPCPPCPAPEFLGGPSVFLFPPKPKDTLMISRTPEVTCVVVDVSQEDPEVQFNWYVDGVEVHNAKTKPREEQFNSTYRVVSVLTVLHQDWLNGKEYKCKVSNKGLPSSIEKTISKAKGQPREPQVYTLPPCQEEMTKNQVSLWCLVKGFYPSDIAVEWESNGQPENNYKTTPPVLDSDGSFFLYSRLTVDKSRWQEGNVFSCSVMHEALHNHYTQKSLSLSLGKGGGGSGGGGSGGGGSDVQLQESGGGLVQAGGSLRLSCAASGRTISRYAVGWFRRPPAKEREFIGINWSGGSTTYADSAEGRFIISRDNAKNTVYLQMNSLKPEDTAVYYCAVPSVLVQGGISNPSQYDYWGQGTQVTVS
chain 2: GPPCPPCPAPEFLGGPSVFLFPPKPKDTLMISRTPEVTCVVVDVSQEDPEVQFNWYVDGVEVHNAKTKPREEQFNSTYRVVSVLTVLHQDWLNGKEYKCKVSNKGLPSSIEKTISKAKGQPREPQVCTLPPSQEEMTKNQVSLSCAVKGFYPSDIAVEWESNGQPENNYKTTPPVLDSDGSFFLVSRLTVDKSRWQEGNVFSCSVMHEALHNHYTQKSLSLSLGKGGGGSGGGGSGGGGSEVQLLESGGGLVQPGGSLRLSCAASGFTFGNYDMAWVRQAPGKRPEWVSSIDTGGDITHYADSVKGRFTISRDNAKNTLYLQMNSLRPEDTAVYWCATDEEYALGPNEFDYYGQGTLVTVSS
B8: CIgG4E2A1(G4S)1 (Fc fusion)
chain 1: GPPCPPCPAPEFLGGPSVFLFPPKPKDTLMISRTPEVTCVVVDVSQEDPEVQFNWYVDGVEVHNAKTKPREEQFNSTYRVVSVLTVLHQDWLNGKEYKCKVSNKGLPSSIEKTISKAKGQPREPQVYTLPPCQEEMTKNQVSLWCLVKGFYPSDIAVEWESNGQPENNYKTTPPVLDSDGSFFLYSRLTVDKSRWQEGNVFSCSVMHEALHNHYTQKSLSLSLGKGGGGSDVQLQESGGGLVQAGGSLRLSCAASGRTISRYAVGWFRRPPAKEREFIGINWSGGSTTYADSAEGRFIISRDNAKNTVYLQMNSLKPEDTAVYYCAVPSVLVQGGISNPSQYDYWGQGTQVTVS
chain 2: GPPCPPCPAPEFLGGPSVFLFPPKPKDTLMISRTPEVTCVVVDVSQEDPEVQFNWYVDGVEVHNAKTKPREEQFNSTYRVVSVLTVLHQDWLNGKEYKCKVSNKGLPSSIEKTISKAKGQPREPQVCTLPPSQEEMTKNQVSLSCAVKGFYPSDIAVEWESNGQPENNYKTTPPVLDSDGSFFLVSRLTVDKSRWQEGNVFSCSVMHEALHNHYTQKSLSLSLGKGGGGSEVQLLESGGGLVQPGGSLRLSCAASGFTFGNYDMAWVRQAPGKRPEWVSSIDTGGDITHYADSVKGRFTISRDNAKNTLYLQMNSLRPEDTAVYWCATDEEYALGPNEFDYYGQGTLVTVSS

In this assay the target is mixture of three Der p 2 specific recombinant human IgE clones H10, H12, P4E (human) (UniProt P01854). Description: RBL-SX38 IgE displacement, FACS.
mixture of three Der p 2 specific recombinant human IgE clones H10, H12, P4E (human), sequence (P01854 other isoform, or with tags, fused parts or gaps): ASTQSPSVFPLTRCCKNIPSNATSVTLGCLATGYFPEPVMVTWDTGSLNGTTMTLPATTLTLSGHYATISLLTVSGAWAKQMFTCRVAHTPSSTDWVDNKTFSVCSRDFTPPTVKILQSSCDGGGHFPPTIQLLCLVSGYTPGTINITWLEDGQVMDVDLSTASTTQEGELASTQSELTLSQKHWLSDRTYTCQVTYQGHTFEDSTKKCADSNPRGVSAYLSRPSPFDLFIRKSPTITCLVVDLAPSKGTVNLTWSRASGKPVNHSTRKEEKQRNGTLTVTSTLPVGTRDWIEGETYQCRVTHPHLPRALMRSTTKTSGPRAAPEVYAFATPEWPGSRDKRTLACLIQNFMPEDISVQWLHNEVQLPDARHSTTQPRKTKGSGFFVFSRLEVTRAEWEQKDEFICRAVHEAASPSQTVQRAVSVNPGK
In the case of B1, the EC50 worked out at 2 nM and the Max effect/effect 1 µM came to 97%.

Turning to B2, the EC50 amounted to 1.9 nM and the Max effect/effect 1 µM turned out to be 98%.

Take B3: the half-maximal effective concentration (EC50) turned out to be 572 nM and the Max effect/effect 1 µM is 45%.

Take B4: the Max effect/effect 1 µM was 6%.

In the case of B5, the EC50 worked out at 2.2 nM and the Max effect/effect 1 µM came out at 100%.

For B6, the EC50 is 2 nM and the Max effect/effect 1 µM was 99%.

For the molecule B7, the EC50 was found to be 532 nM and the Max effect/effect 1 µM came out at 45%.

Take B8: the Max effect/effect 1 µM was 22%.
